Positions count from the first letter of the chain named.
T1: GPC3 peptide on HLA-A*24:02 (human)
T1 peptide: EYILSLEEL

T2: GPC3 peptide on HLA-A2 (human)
T2 peptide: FVGEFFTDV

T3: FOXM1 peptide on HLA-A*24:02 (human)
T3 peptide: IYTWIEDHF

B1: e1D8 (TCR, V domains shown)
Valpha: GEDVEQSLFLSVREGDSSVINCTYTDSSSTYLYWYKQEPGAGLQLLTYIFSNMDMKQDQRLTVLLNKKDKHLSLRIADTQTGDSAIYFCAENHSSASKIIFGSGTRLSIRP
Vbeta: DSGVTQTPKHLITATGQRVTLRCSPRSGDLSVYWYQQSLDQGLQFLIQYYNGEERAKGNILERFSAQQFPDLHSELNLSSLELGDSALYFCASSVGSGRNYEQYFGPGTRLTVT
B2: 52B11 (TCR, V domains shown)
Valpha: QKEVEQDPGPLSVPEGAIVSLNCTYSNSAFQYFMWYRQYSRKGPELLMYTYSSGNKEDGRFTAQVDKSSKYISLFIRDSQPSDSATYLCAQRIVMEYGNKLVFGAGTILRVKS
Vbeta: EPEVTQTPSHQVTQMGQEVILRCVPISNHLYFYWYRQILGQKVEFLVSFYNNEISEKSEIFDDQFSVERPDGSNFTLKIRSTKLEDSAMYFCASSEGAEAFFGQGTRLTVV
B3: i2B7 (TCR, V domains shown)
Valpha: AQSVAQPEDQVNVAEGNPLTVKCTYSVSGNPYLFWYVQYPNRGLQFLLKYITGDNLVKGSYGFEAEFNKSQTSFHLKKPSALVSDSALYFCAVNPTGGGNKLTFGTGTQLKVEL
Vbeta: DARVTQTPRDKVTEMGQEVTMRCQPILGHNTVFWYRQTMMQGLELLAYFRNRAPLDDSGMPKDRFSAEMPDATLATLKIQPSEPRDSAVYFCASGLGGNQPQHFGDGTRLSIL
B4: ⑧2D9 (TCR, V domains shown)
Valpha: QKEVEQNSGPLSVPEGAIASLNCTYSDRGSQSFFWYRQYSGKSPELIMFIYSNGDKEDGRFTAQLNKASQYVSLLIRDSQPSDSATYLCAVNMDGNNRLAFGKGNQVVVIP
Vbeta: DAGITQSPRHKVTETGTPVTLRCHQTENHRYMYWYRQDPGHGLRLIHYSYGVKDTDKGEVSDGYSVSRSKTEDFLLTLESATSSQTSVYFCASVYGSEAFFGQGTRLTVV
B5: ⑨5C6 (TCR, V domains shown)
Valpha: AQSVTQPDIHITVSEGASLELRCNYSYGATPYLFWYVQSPGQGLQLLLKYFSGDTLVQGIKGFEAEFKRSQSSFNLRKPSVHWSDAAEYFCAVGSPSGYSTLTFGKGTMLLVSP
Vbeta: EAQVTQNPRYLITVTGKKLTVTCSQNMNHEYMSWYRQDPGLGLRQIYYSMNVEVTDKGDVPEGYKVSRKEKRNFPLILESPSPNQTSLYFCASSPTRFYEQYFGPGTRLTVT
B6: (46)2A6 (TCR, V domains shown)
Valpha: RKEVEQDPGPFNVPEGATVAFNCTYSNSASQSFFWYRQDCRKEPKLLMSVYSSGNEDGRFTAQLNRASQYISLLIRDSKLSDSATYLCKISGGYNKLIFGAGTRLAVHP
Vbeta: B1 Vbeta with S97G, R99L, N100G, Y101T, Q103A, Y104F, P107Q, T114V
B7: i6E9 (TCR, V domains shown)
Valpha: RKEVEQDPGPFNVPEGATVAFNCTYSNSASQSFFWYRQDCRKEPKLLMSVYSSGNEDGRFTAQLNRASQYISLLIRDSKLSDSATYLCVVNLGNYGQNFVFGPGTRLSVLP
Vbeta: B1 Vbeta with S97G, R99L, N100S, Y101N, Y104F, T114L
B8: i7E6, TRA of SEQ ID NO: 138 (TCR, V domains shown)
Valpha: AQRVTQPEKLLSVFKGAPVELKCNYSYSGSPELFWYVQYSRQRLQLLLRHISRESIKGFTADLNKGETSFHLKKPFAQEEDSAMYYCALANQAGTALIFGKGTTLSVSS
Vbeta: B1 Vbeta with V95P, S97G, R99A, N100S, Y101S, E102P, Q103L, Y104H, P107N
B9: eC1 (TCR, V domains shown)
Valpha: GESVGLHLPTLSVQEGDNSIINCAYSNSASDYFIWYKQESGKGPQFIIDIRSNMDKRQGQRVTVLLNKTVKHLSLQIAATQPGDSAVYFCAGRTGFQKLVFGTGTRLLVSP
Vbeta: B1 Vbeta with S97G, R99L, N100Y, Y101N, Y104F, T114L
B10: i7E6, TRA of SEQ ID NO: 139 (TCR, V domains shown)
Valpha: KQEVTQIPAALSVPEGENLVLNCSFTDSAIYNLQWFRQDPGKGLTSLLLIQSSQREQTSGRLNASLDKSSGRSTLYIAASQPGDSATYLCAVKRRAAGNKLTFGGGTRVLVKP
Vbeta: B1 Vbeta with V95P, S97G, R99A, N100S, Y101S, E102P, Q103L, Y104H, P107N
B11: il2G6, TRA of SEQ ID NO: 130 (TCR, V domains shown)
Valpha: RKEVEQDPGPFNVPEGATVAFNCTYSNSASQSFFWYRQDCRKEPKLLMSVYSSGNEDGRFTAQLNRASQYISLLIRDSKLSDSATYLCVVNTGRRALTFGSGTRLQVQP
Vbeta: B1 Vbeta with S97G, R99A, N100G, Y101N, E102T, Q103I, P107E, T109S, R110W, T114V
B12: il2G6, TRA of SEQ ID NO: 129 (TCR, V domains shown)
Valpha: LAKTTQPISMDSYEGQEVNITCSHNNIATNDYITWYQQFPSQGPRFIIQGYKTKVTNEVASLFIPADRKSSTLSLPRVSLSDTAVYYCLVGHSGNTPLVFGKGTRLSVIA
Vbeta: B1 Vbeta with S97G, R99A, N100G, Y101N, E102T, Q103I, P107E, T109S, R110W, T114V
B13: eC7 (TCR, V domains shown)
Valpha: SQQGEEDPQALSIQEGENATMNCSYKTSINNLQWYRQNSGRGLVHLILIRSNEREKHSGRLRVTLDTSKKSSSLLITASRAADTASYFCAVRYSSASKIIFGSGTRLSIRP
Vbeta: B1 Vbeta with V95A, S97G, R99S, Y101N, Y104F, T114L
B14: i2F3 (TCR, V domains shown)
Valpha: RKEVEQDPGPFNVPEGATVAFNCTYSNSASQSFFWYRQDCRKEPKLLMSVYSSGNEDGRFTAQLNRASQYISLLIRDSKLSDSATYLCVVNKSWGKLQFGAGTQVVVTP
Vbeta: DSGVTQTPKHLITATGQRVTLRCSPRSGDLSVYWYQQSLDQGLQFLIQYYNGEERAKGNILERFSAQQFPDLHSELNLSSLELGDSALYFCASSAGTSGNEQFFGPGTRLTVL
B15: eD3 (TCR, V domains shown)
Valpha: RKEVEQDPGPFNVPEGATVAFNCTYSNSASQSFFWYRQDCRKEPKLLMSVYSSGNEDGRFTAQLNRASQYISLLIRDSKLSDSATYLCVVKGGNNFNKFYFGSGTKLNVKP
Vbeta: NAGVTQTPKFQVLKTGQSMTLQCAQDMNHNSMYWYRQDPGMGLRLIYYSASEGTTDKGEVPNGYNVSRLNKREFSLRLESAAPSQTSVYFCASSHRVNSNQPQHFGDGTRLSIL
B16: G9 (TCR, V domains shown)
Valpha: KQEVTQIPAALSVPEGENLVLNCSFTDSAIYNLQWFRQDPGKGLTSLLLIQSSQREQTSGRLNASLDKSSGRSTLYIAASQPGDSATYLCAVTRRALTFGSGTRLQVQP
Vbeta: KAGVTQTPRYLIKTRGQQVTLSCSPISGHRSVSWYQQTPGQGLQFLFEYFSETQRNKGNFPGRFSGRQFSNSRSEMNVSTLELGDSALYLCASSVTSGRTHTDTQYFGPGTRLTVL
B17: i3C2 (TCR, V domains shown)
Valpha: GQNIDQPTEMTATEGAIVQINCTYQTSGFNGLFWYQQHAGEAPTFLSYNVLDGLEEKGRFSSFLSRSKGYSYLLLKELQMKDSASYLCAVRVWKAAGNKLTFGGGTRVLVKP
Vbeta: GAVVSQHPSWVICKSGTSVKIECRSLDFQATTMFWYRQFPKQSLMLMATSNEGSKATYEQGVEKDKFLINHASLTLSTLTVTSAHPEDSSFYICSARRLAGGGNEQFFGPGTRLTVL
B18: 1F5 (TCR, V domains shown)
Valpha: EDQVTQSPEALRLQEGESSSLNCSYTVSGLRGLFWYRQDPGKGPEFLFTLYSAGEEKEKERLKATLTKKESFLHITAPKPEDSATYLCAASNSGGSNYKLTFGKGTLLTVNP
Vbeta: DSGVTQTPKHLITATGQRVTLRCSPRSGDLSVYWYQQSLDQGLQFLIQYYNGEERAKGNILERFSAQQFPDLHSELNLSSLELGDSALYFCASSVDGKGTQYFGPGTRLLVL
B19: (21)1D5 (TCR, V domains shown)
Valpha: QKEVEQDPGPLSVPEGAIVSLNCTYSNSAFQYFMWYRQYSRKGPELLMYTYSSGNKEDGRFTAQVDKSSKYISLFIRDSQPSDSATYLCAMSGHFNKFYFGSGTKLNVKP
Vbeta: KAGVTQTPRYLIKTRGQQVTLSCSPISGHRSVSWYQQTPGQGLQFLFEYFSETQRNKGNFPGRFSGRQFSNSRSEMNVSTLELGDSALYLCASSLRAGELFFGEGSRLTVL
B20: ②1E7 (TCR, V domains shown)
Valpha: AQSVSQHNHHVILSEAASLELGCNYSYGGTVNLFWYVQYPGQHLQLLLKYFSGDPLVKGIKGFEAEFIKSKFSFNLRKPSVQWSDTAEYFCAVRHGGTGTASKLTFGTGTRLQVTL
Vbeta: GAVVSQHPSWVICKSGTSVKIECRSLDFQATTMFWYRQFPKQSLMLMATSNEGSKATYEQGVEKDKFLINHASLTLSTLTVTSAHPEDSSFYICSARALGGYTFGSGTRLTVV
B21: F5 (TCR, V domains shown)
Valpha: KDQVFQPSTVASSEGAVVEIFCNHSVSNAYNFFWYLHFPGCAPRLLVKGSKPSQQGRYNMTYERFSSSLLILQVREADAAVYYCAVNQAGTALIFGKGTTLSVSS
Vbeta: DTEVTQTPKHLVMGMTNKKSLKCEQHMGHRAMYWYKQKAKKPPELMFVYSYEKLSINESVPSRFSPECPNSSLLNLHLHALQPEDSALYLCASSQERTSGRSADTQYFGPGTRLTVL
B22: Clone 4, 7, 34 (Table 10) (TCR, V domains shown)
Valpha: GEQVEQRPPHLSVREGDSAFIICTYTDSATAYFYWYKQEPGAGLQLLMSVFSNVDRKEEQGLTVLLNKKDKRLSLNLTAAHPGDSAVYFCAVGNSNNRIFFGDGTQLVVKP
Vbeta: NTKITQSPRYLILGRANKSLECEQHLGHNAMYWYKQSAEKPPELMFLYNLKQLIRNETVPSRFIPECPDSSKLLLHISAVDPEDSAVYFCASSQLGSSAETLYFGSGTRLTVL

Target: T1, GPC3 peptide on HLA-A*24:02
Experiment: cytokine release

Binding result, recognises:
B1

Target: T2, GPC3 peptide on HLA-A2
Experiment: multimer staining

Binding result, recognises:
B2
B3
B4
B5

Target: T1, GPC3 peptide on HLA-A*24:02
Experiment: multimer staining

Binding result, recognises:
B6
B7
B8
B9
B10
B11
B12
B13
B14
B15
B16
B17

Target: T3, FOXM1 peptide on HLA-A*24:02
Experiment: multimer staining

Binding result, recognises:
B18
B19
B20
B21

Target: EPHB4 peptide on HLA-A*02:01 (human)
Experiment: activation reporter or marker

Binding result, recognises:
B22

— US20250339504A1 (published 2025)
